Here are results for six molecules from article PMC4239663, “Structural basis for extracellular cis and trans RPTPσ signal competition in synaptogenesis” (Nature Communications, 2014).

Changes are numbered by the printed parent chain. Where two headings read alike, the source gives them in different places.

The target in assay [1] is T1, mouse TrkC LRRIg1 (soluble) (mouse, UniProt Q6VNS1 32-302).
T1 chain: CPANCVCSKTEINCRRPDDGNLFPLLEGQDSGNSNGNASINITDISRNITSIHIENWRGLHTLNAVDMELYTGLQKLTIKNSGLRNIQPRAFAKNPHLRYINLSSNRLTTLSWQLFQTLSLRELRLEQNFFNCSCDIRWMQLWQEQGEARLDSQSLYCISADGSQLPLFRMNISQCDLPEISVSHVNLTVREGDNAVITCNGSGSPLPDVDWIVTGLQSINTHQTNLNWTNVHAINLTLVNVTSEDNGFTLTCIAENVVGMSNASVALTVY
Description: SPR. On the technique in general: In SPR one partner is held on a chip, and binding of the other changes the refractive index at the surface.

For assay [2], the target named is T1, mouse TrkC LRRIg1 (soluble). Put plainly: SEC-MALS; Superdex200 HR10/30 in 10 mM Tris, 50 mM NaCl, pH 7.5; refractive index and multi-angle light scattering detectors. A general note: In gel filtration, larger molecules generally elute earlier.
The next assay has as its target T2, mouse TrkC LRRIg2 (Mus musculus).
T2 chain: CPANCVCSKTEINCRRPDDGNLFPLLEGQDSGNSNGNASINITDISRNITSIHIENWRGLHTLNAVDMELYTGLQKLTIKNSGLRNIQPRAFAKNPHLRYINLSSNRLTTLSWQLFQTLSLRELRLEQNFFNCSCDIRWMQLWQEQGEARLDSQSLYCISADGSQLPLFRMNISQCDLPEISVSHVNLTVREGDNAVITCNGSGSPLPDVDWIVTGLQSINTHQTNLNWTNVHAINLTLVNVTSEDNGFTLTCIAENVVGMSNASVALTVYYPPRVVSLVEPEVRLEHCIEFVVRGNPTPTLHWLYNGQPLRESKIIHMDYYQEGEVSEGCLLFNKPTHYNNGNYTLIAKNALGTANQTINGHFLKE
Description: SPR.

Assay [3] concerns the target T3, mouse TrkC LRRIg1, C-terminal Avitag, immobilized (mouse, UniProt Q6VNS1 32-302, biotin on the Avitag (enzymatic)).
T3 chain: T1 chain
Description: SPR.

The target in assay [4] is T4, chicken RPTPσ N73S+S74N (RPTPδ-like) Ig1–3, C-terminal Avitag (chicken, UniProt F1NWE3 29-316, N73S | S74N, biotin on the Avitag (enzymatic)).
T4 construct: chicken RPTPσ Ig1–3, amino acids 29–316 of NCBI NM_205407.1; not shown: Avitag (BirA recognition site), C-terminal, kept
T4 sequence (looked up): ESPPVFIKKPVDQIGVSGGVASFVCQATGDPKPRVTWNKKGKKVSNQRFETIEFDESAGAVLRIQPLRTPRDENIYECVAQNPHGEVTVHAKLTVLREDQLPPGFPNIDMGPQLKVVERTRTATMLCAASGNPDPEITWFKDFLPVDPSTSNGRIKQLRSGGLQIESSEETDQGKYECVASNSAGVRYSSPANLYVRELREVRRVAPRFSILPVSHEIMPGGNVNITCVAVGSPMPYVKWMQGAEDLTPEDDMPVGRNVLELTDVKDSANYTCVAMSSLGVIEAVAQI
Put plainly: SPR; equilibrium; biotinylated chicken RPTPσ Ig1–3 (wild type or mutants) immobilized on streptavidin-coated CM5 chips, chicken TrkC LRRIg1 as analyte; 10 mM HEPES pH 7.5, 150 mM NaCl, 0.01% Tween 20, 25 °C. The conditions noted are these: both partners purified.

Assay [5] concerns the target T5, chicken RPTPσ Ig1–3, C-terminal Avitag, immobilized (chicken, UniProt F1NWE3 29-316, biotin on the Avitag (enzymatic)).
T5 construct: chicken RPTPσ Ig1–3, amino acids 29–316 of NCBI NM_205407.1; not shown: Avitag (BirA recognition site), C-terminal, kept
T5 sequence (looked up): T4 sequence (looked up) with S45N, N46S
The assay is described as above. The conditions noted are these: both partners purified.

Assay [6] has as its target T6, chicken TrkC LRRIg1cryst (crystallization protein) (chicken, UniProt Q91044 32-302, lack residues 63–77 | N163Q | N232Q | N259Q | N267Q | N294Q).
T6 construct: chicken TrkC LRRIg1, amino acids 32–302 of NCBI NM_205169.1, lacking residues 63–77; extra vector residues ETG (N-terminal) and GT (C-terminal) seen in the model; The methods name only the pHL-Avitag3 vector for this construct; also called cTrkC LRRIg1_(cryst)
T6 sequence (looked up): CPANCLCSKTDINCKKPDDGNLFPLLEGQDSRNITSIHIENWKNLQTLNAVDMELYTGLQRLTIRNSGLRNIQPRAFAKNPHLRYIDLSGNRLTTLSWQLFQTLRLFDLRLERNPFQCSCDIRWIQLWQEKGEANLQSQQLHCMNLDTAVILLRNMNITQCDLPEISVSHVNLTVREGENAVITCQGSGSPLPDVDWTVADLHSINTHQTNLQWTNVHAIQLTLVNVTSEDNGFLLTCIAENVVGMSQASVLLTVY
Description: crystal structure; 2.5 Å, space group P2; 10% PEG 20k, 20% PEG MME 550, 0.1 M bicine/Tris pH 8.5, 0.03 M sodium nitrate, disodium hydrogen phosphate and ammonium sulphate; 20.5 °C. Conditions: both partners purified.

Assay [7] deals with T7, mouse TrkC LRRIg1, C-terminal Avitag, immobilized (mouse, UniProt Q6VNS1 32-302, biotin on the Avitag (enzymatic)).
T7 construct: mouse TrkC, leucine-rich repeat domain and first Ig domain, amino acids 32–302 of NCBI BC139764.1; not shown: Avitag (BirA recognition site), C-terminal, kept
Description: SPR; equilibrium; biotinylated mouse TrkC LRRIg1 (wild type or D240A+D242A) immobilized on streptavidin-coated CM5 chips, human RPTP proteins as analytes; 10 mM HEPES pH 7.5, 150 mM NaCl, 0.01% Tween 20, 25 °C; in Fig. 6a also with increasing HS or heparin-dp10. Conditions: both partners purified.

Assay [8] concerns the target T8, TrkC (species and construct not stated; Supplementary Figs 5a,b and 8i) ( (mouse or chicken constructs …, UniProt Q6VNS1 32-825).
T8 construct: TrkC ectodomain construct; they may differ
Put plainly: SPR; equilibrium; RPTPσ and TrkC truncations (Supplementary Fig. 5a,b); species and who was immobilized not given. The conditions noted are these: both partners purified.

Assay [9] concerns the target T1, mouse TrkC LRRIg1 (soluble). Put plainly: SPR.
Assay [10] has the same target. Description: SPR.

B1: human RPTPσ Ig1-FN3 (domain or fragment)
chain: EEPPRFIKEPKDQIGVSGGVASFVCQATGDPKPRVTWNKKGKKVNSQRFETIEFDESAGAVLRIQPLRTPRDENVYECVAQNSVGEITVHAKLTVLREDQLPSGFPNIDMGPQLKVVERTRTATMLCAASGNPDPEITWFKDFLPVDPSASNGRIKQLRSGALQIESSEETDQGKYECVATNSAGVRYSSPANLYVRVRRVAPRFSILPMSHEIMPGGNVNITCVAVGSPMPYVKWMQGAEDLTPEDDMPVGRNVLELTDVKDSANYTCVAMSSLGVIEAVAQITVKSLPKAPGTPMVTENTATSITITWDSGNPDPVSYYVIEYKSKSQDGPYQIKEDITTTRYSIGGLSPNSEYEIWVSAVNSIGQGPPSESVVTRTGEQAPASAPRNVQARMLSATTMIVQWEEPVEPNGLIRGYRVYYTMEPEHPVGNWQKHNVDDSLLTTVGSLLEDETYTVRVLAFTSVGDGPLSDPIQVKTQQGVPGQPMNLRAEARSETSITLSWSPPRQESIIKYELLFREGDHGREVGRTFDPTTSYVVEDLKPNTEYAFRLAARSPQGLGAFTPVVRQRTL
As a reminder, the Kd is a measure of binding affinity in units of concentration. A low value points to tighter binding. By stoichiometry N is commonly meant a count of units in the complex or per binding partner. Consider B1, for which the Kd was determined as 468 nM in [1], 202 nM with mouse TrkC LRRIg2 and 278 nM in assay [3]. In assay [2], the stoichiometry N was 1.

B2: chicken TrkC LRRIg1 (analyte of Fig. 3c) (domain or fragment)
chain: CPANCLCSKTDINCKKPDDGNLFPLLEGQDSGSSNGNTSINITDISRNITSIHIENWKNLQTLNAVDMELYTGLQRLTIRNSGLRNIQPRAFAKNPHLRYIDLSGNRLTTLSWQLFQTLRLFDLRLERNPFQCSCDIRWIQLWQEKGEANLQSQQLHCMNLDTAVILLRNMNITQCDLPEISVSHVNLTVREGENAVITCQGSGSPLPDVDWTVADLHSINTHQTNLQWTNVHAIQLTLVNVTSEDNGFLLTCIAENVVGMSQASVLLTVY
In the case of B2, the Kd in assay [4] is more than 21000 nM; in [5], 3500 nM.

B3: chicken RPTPσ Ig1–2 (as found in the 2.5 Å complex crystals) (domain or fragment)
chain: ESPPVFIKKPVDQIGVSGGVASFVCQATGDPKPRVTWNKKGKKVNSQRFETIEFDESAGAVLRIQPLRTPRDENIYECVAQNPHGEVTVHAKLTVLREDQLPPGFPNIDMGPQLKVVERTRTATMLCAASGNPDPEITWFKDFLPVDPSTSNGRIKQLRSGGLQIESSEETDQGKYECVASNSAGVRYSSPANLYVR
notes: chicken RPTPσ; the crystallization protein was Ig1–3 (amino acids 29–316 of NM_205407.1); the cleavage site in the Ig2–Ig3 linker is not determined; also called cRPTPσ Ig1-2; source: HEK-293S GnTI− cells as Ig1–3, purified; Ig3 absent from the crystals, proteolytic cleavage the most likely reason
Consider B3, for which, in [6], the “stoichiometry N” value came out at 1.

B4: human RPTPδ sEcto (domain or fragment)
chain: ETPPRFTRTPVDQTGVSGGVASFICQATGDPRPKIVWNKKGKKVSNQRFEVIEFDDGSGSVLRIQPLRTPRDEAIYECVASNNVGEISVSTRLTVLREDQIPRGFPTIDMGPQLKVVERTRTATMLCAASGNPDPEITWFKDFLPVDTSNNNGRIKQLRSESIGGTPIRGALQIEQSEESDQGKYECVATNSAGTRYSAPANLYVRELREVRRVPPRFSIPPTNHEIMPGGSVNITCVAVGSPMPYVKWMLGAEDLTPEDDMPIGRNVLELNDVRQSANYTCVAMSTLGVIEAIAQITVKALPKPPGTPVVTESTATSITLTWDSGNPEPVSYYIIQHKPKNSEELYKEIDGVATTRYSVAGLSPYSDYEFRVVAVNNIGRGPPSEPVLTQTSEQAPSSAPRDVQARMLSSTTILVQWKEPEEPNGQIQGYRVYYTMDPTQHVNNWMKHNVADSQITTIGNLVPQKTYSVKVLAFTSIGDGPLSSDIQVITQTGVPGQPLNFKAEPESETSILLSWTPPRSDTIANYELVYKDGEHGEEQRITIEPGTSYRLQGLKPNSLYYFRLAARSPQGLGASTAEISARTMQSKPSAPPQDISCTSPSSTSILVSWQPPPVEKQNGIITEYSIKYTAVDGEDDKPHEILGIPSDTTKYLLEQLEKWTEYRITVTAHTDVGPGPESLSVLIRTNEDVPSGPPRKVEVEAVNSTSVKVSWRSPVPNKQHGQIRGYQVHYVRMENGEPKGQPMLKDVMLADAQWEFDDTTEHDMIISGLQPETSYSLTVTAYTTKGDGARSKPKLVSTTGAVPGKPRLVINH
In [7], B4 had a Kd of more than 22000 nM.

B5: RPTPσ Ig1–2 (species not stated; Supplementary Fig. 5a) (domain or fragment)
chain: EEPPRFIKEPKDQIGVSGGVASFVCQATGDPKPRVTWNKKGKKVNSQRFETIEFDESAGAVLRIQPLRTPRDENVYECVAQNSVGEITVHAKLTVLREDQLPSGFPNIDMGPQLKVVERTRTATMLCAASGNPDPEITWFKDFLPVDPSASNGRIKQLRSGALQIESSEETDQGKYECVATNSAGVRYSSPANLYVRV
Take B5: in assay [8], the equilibrium dissociation constant (Kd) is 2400 nM.

B6: RPTPσ Ig1–3 (species not stated; Supplementary Figs 5a and 8i) (domain or fragment)
chain: EEPPRFIKEPKDQIGVSGGVASFVCQATGDPKPRVTWNKKGKKVNSQRFETIEFDESAGAVLRIQPLRTPRDENVYECVAQNSVGEITVHAKLTVLREDQLPSGFPNIDMGPQLKVVERTRTATMLCAASGNPDPEITWFKDFLPVDPSASNGRIKQLRSGALQIESSEETDQGKYECVATNSAGVRYSSPANLYVRVRRVAPRFSILPMSHEIMPGGNVNITCVAVGSPMPYVKWMQGAEDLTPEDDMPVGRNVLELTDVKDSANYTCVAMSSLGVIEAVAQITVKSLPKA
Take B6: the dissociation constant (Kd) in assay [9] stood at 580 nM; in assay [10], 551 nM.
